Where no end group is shown, it is not given here. [ ]: non-standard residue; d: D form. Aib = CC(C)(N)C(=O)O
T1: human GIP receptor (human, UniProt P48546 22-466)
T1 sequence (looked up): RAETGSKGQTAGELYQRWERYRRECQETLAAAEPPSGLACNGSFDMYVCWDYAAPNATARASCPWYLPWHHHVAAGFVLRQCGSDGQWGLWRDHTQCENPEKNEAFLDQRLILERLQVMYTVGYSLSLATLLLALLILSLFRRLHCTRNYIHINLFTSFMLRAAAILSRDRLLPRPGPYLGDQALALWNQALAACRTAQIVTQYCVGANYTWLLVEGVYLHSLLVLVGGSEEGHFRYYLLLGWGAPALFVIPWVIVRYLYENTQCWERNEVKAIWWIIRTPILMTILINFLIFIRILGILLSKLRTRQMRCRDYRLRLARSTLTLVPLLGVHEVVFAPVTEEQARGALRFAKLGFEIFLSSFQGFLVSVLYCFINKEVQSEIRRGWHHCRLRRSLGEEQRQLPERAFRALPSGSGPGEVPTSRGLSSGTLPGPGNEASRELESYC


How the values were obtained:
Assay in all cases: cell-based or functional assay
human GIP receptor [1] = target: T1, human GIP receptor
human GLP-1 receptor [2] = target: T2, human GLP-1 receptor (human, UniProt P43220 24-463)
human GIP receptor [3] = target: T1, human GIP receptor; remark: listed apart in the source
human GLP-1 receptor [4] = target: T2, human GLP-1 receptor; remark: listed apart in the source

T2 sequence (P43220 24-463): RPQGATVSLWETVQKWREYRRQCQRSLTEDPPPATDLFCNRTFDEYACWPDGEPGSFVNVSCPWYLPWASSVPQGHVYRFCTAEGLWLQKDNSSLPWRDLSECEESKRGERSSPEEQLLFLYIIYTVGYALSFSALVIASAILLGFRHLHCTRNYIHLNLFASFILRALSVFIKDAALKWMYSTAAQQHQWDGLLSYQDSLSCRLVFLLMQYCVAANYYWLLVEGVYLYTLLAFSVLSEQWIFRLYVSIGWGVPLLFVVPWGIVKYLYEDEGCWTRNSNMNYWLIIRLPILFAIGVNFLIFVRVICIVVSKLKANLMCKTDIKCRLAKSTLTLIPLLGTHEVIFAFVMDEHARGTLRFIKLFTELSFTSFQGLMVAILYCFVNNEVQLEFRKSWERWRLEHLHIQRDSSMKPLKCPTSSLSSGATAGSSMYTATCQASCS

EC50, GIP Receptor cAMP induction (human GIP receptor [1]) [nM]	Relative Potency, GIP Receptor (human GIP receptor [1]) [%]	EC50, GLP-1 Receptor cAMP induction (human GLP-1 receptor [2]) [nM]	Relative Potency, GLP-1 Receptor (human GLP-1 receptor [2]) [%]	EC50, GIPR cAMP induction (human GIP receptor [3]) [nM]	EC50, GLP-1R cAMP induction (human GLP-1 receptor [4]) [nM]	Binder
0.088	107	1.28	75	0.088	1.28	Y[Aib]EGTFTSDYSIYMEKEAVREFIAWLVKG-NH2 (N-terminus assumed; SMILES CC[C@H](C)[C@H](NC(=O)[C@H](Cc1ccccc1)NC(=O)[C@H](CCC(=O)O)NC(=O)[C@H](CCCNC(=N)N)NC(=O)[C@@H](NC(=O)[C@H](C)NC(=O)[C@H](CCC(=O)O)NC(=O)[C@H](CCCCN)NC(=O)[C@H](CCC(=O)O)NC(=O)[C@H](CCSC)NC(=O)[C@H](Cc1ccc(O)cc1)NC(=O)[C@@H](NC(=O)[C@H](CO)NC(=O)[C@H](Cc1ccc(O)cc1)NC(=O)[C@H](CC(=O)O)NC(=O)[C@H](CO)NC(=O)[C@@H](NC(=O)[C@H](Cc1ccccc1)NC(=O)[C@@H](NC(=O)CNC(=O)[C@H](CCC(=O)O)NC(=O)C(C)(C)NC(=O)[C@@H](N)Cc1ccc(O)cc1)[C@@H](C)O)[C@@H](C)O)[C@@H](C)CC)C(C)C)C(=O)N[C@@H](C)C(=O)N[C@@H](Cc1c[nH]c2ccccc12)C(=O)N[C@@H](CC(C)C)C(=O)N[C@H](C(=O)N[C@@H](CCCCN)C(=O)NCC(N)=O)C(C)C) [Analog 023]
1.5	33.3	0.837	131	1.5	0.837	Y[Aib]EGTFTSDYSIYMEKQAAKEFIAWLVKG-NH2 (N-terminus assumed; SMILES CC[C@H](C)[C@H](NC(=O)[C@H](Cc1ccccc1)NC(=O)[C@H](CCC(=O)O)NC(=O)[C@H](CCCCN)NC(=O)[C@H](C)NC(=O)[C@H](C)NC(=O)[C@H](CCC(N)=O)NC(=O)[C@H](CCCCN)NC(=O)[C@H](CCC(=O)O)NC(=O)[C@H](CCSC)NC(=O)[C@H](Cc1ccc(O)cc1)NC(=O)[C@@H](NC(=O)[C@H](CO)NC(=O)[C@H](Cc1ccc(O)cc1)NC(=O)[C@H](CC(=O)O)NC(=O)[C@H](CO)NC(=O)[C@@H](NC(=O)[C@H](Cc1ccccc1)NC(=O)[C@@H](NC(=O)CNC(=O)[C@H](CCC(=O)O)NC(=O)C(C)(C)NC(=O)[C@@H](N)Cc1ccc(O)cc1)[C@@H](C)O)[C@@H](C)O)[C@@H](C)CC)C(=O)N[C@@H](C)C(=O)N[C@@H](Cc1c[nH]c2ccccc12)C(=O)N[C@@H](CC(C)C)C(=O)N[C@H](C(=O)N[C@@H](CCCCN)C(=O)NCC(N)=O)C(C)C) [Analog 025]
